Source: the supplement of paper PMC9112550, “Optimization of the antimicrobial peptide Bac7 by deep mutational scanning” (BMC Biology, 2022)

Tested on: Escherichia coli TOP10
Experiment: shrunken log2 fold change of peptide-encoding DNA abundance (4.5 h post-induction vs induction); higher = less antimicrobial activity (less host growth inhibition)
Details: time post-induction: 4.5 h; library: site-saturation at positions 5, 18, 19, 20
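Further: peptides expressed intracellularly from a pBAD plasmid library in pooled LB shake-flask culture, induced with 0.3% L-arabinose, DNA abundance read by NGS, three biological replicates, DESeq2 with apeglm shrinkage.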

Row | Sequence | shrunken log2 fold change
1 | RRIRRRPPRLPRPRPRPTVGPRP | 0.0232
2 | RRIRDRPPRLPRPRPRPGHFPRP | 0.0123
3 | RRIRYRPPRLPRPRPRPMKHPRP | -0.495
4 | RRIRQRPPRLPRPRPRPCGYPRP | -0.0698
5 | RRIRFRPPRLPRPRPRPKYSPRP | -0.14
6 | RRIRDRPPRLPRPRPRPMIYPRP | -0.0383
7 | RRIRERPPRLPRPRPRPQPPPRP | 0.104
8 | RRIRIRPPRLPRPRPRPLQFPRP | -0.0429
9 | RRIRPRPPRLPRPRPRPKTQPRP | -0.02
10 | RRIRQRPPRLPRPRPRPGMRPRP | 0.941
11 | RRIRPRPPRLPRPRPRPALCPRP | 0.371
12 | RRIRMRPPRLPRPRPRPGVFPRP | 0.858
13 | RRIRDRPPRLPRPRPRPVHLPRP | -0.23
14 | RRIRKRPPRLPRPRPRPRREPRP | 0.853
15 | RRIRFRPPRLPRPRPRPPRGPRP | 0.685
16 | RRIRYRPPRLPRPRPRPIGMPRP | -0.265
17 | RRIRMRPPRLPRPRPRPESDPRP | 3.34
18 | RRIRFRPPRLPRPRPRPDYLPRP | -0.159
19 | RRIRKRPPRLPRPRPRPWKPPRP | -0.243
20 | RRIRQRPPRLPRPRPRPHSMPRP | -0.438
21 | RRIRGRPPRLPRPRPRPYCDPRP | 0.226
22 | RRIRHRPPRLPRPRPRPGSHPRP | -0.226
23 | RRIRWRPPRLPRPRPRPMRQPRP | -0.0376
24 | RRIRRRPPRLPRPRPRPRMVPRP | 0.218
25 | RRIRCRPPRLPRPRPRPVVWPRP | 0.354

Row | Sequence | shrunken log2 fold change
26 | RRIRDRPPRLPRPRPRPLHKPRP | 0.0824
27 | RRIRERPPRLPRPRPRPCSPPRP | -0.286
28 | RRIRGRPPRLPRPRPRPTIHPRP | 0.434
29 | RRIRWRPPRLPRPRPRPAEEPRP | 3.62
30 | RRIRHRPPRLPRPRPRPNACPRP | -0.0122
31 | RRIRKRPPRLPRPRPRPTPAPRP | 1.41
32 | RRIRERPPRLPRPRPRPHKVPRP | -0.361
33 | RRIRKRPPRLPRPRPRPFCSPRP | -0.00787
34 | RRIRARPPRLPRPRPRPNCGPRP | 0.281
35 | RRIRSRPPRLPRPRPRPMWYPRP | -0.0284
36 | RRIRERPPRLPRPRPRPFNYPRP | -0.273
37 | RRIRARPPRLPRPRPRPRSNPRP | 0.0752
38 | RRIRPRPPRLPRPRPRPAQTPRP | 0.177
39 | RRIRERPPRLPRPRPRPRMAPRP | 0.2
40 | RRIRCRPPRLPRPRPRPYEEPRP | -0.255
41 | RRIRERPPRLPRPRPRPMKPPRP | -0.0018
42 | RRIRSRPPRLPRPRPRPWFHPRP | -0.664
43 | RRIRLRPPRLPRPRPRPWWEPRP | 0.176
44 | RRIRGRPPRLPRPRPRPHGVPRP | 0.00437
45 | RRIRSRPPRLPRPRPRPWGKPRP | -0.109
46 | RRIRHRPPRLPRPRPRPQVKPRP | -1.6
47 | RRIRQRPPRLPRPRPRPIQRPRP | -0.0376
48 | RRIRFRPPRLPRPRPRPWDRPRP | -0.167
49 | RRIRLRPPRLPRPRPRPFLAPRP | -0.141
50 | RRIRMRPPRLPRPRPRPYHKPRP | -0.0503
